Primed or numbered codes have the meaning given here. [ ]: non-standard residue; d: D form. Ygp″ = O-(PEG8-amino)-tyrosine (O-(8x polyethylene glycol-amino)-tyrosine); Yn3″ = O-(PEG9-azido)-tyrosine (O-(9x polyethylene glycol-azido)-tyrosine); Ygp = O-(8x polyethylene glycol-amino)-tyrosine; Yn3 = O-(9x polyethylene glycol-azido)-tyrosine; hSer = N[C@@H](CCO)C(=O)O; Nle = CCCC[C@H](N)C(=O)O

For the test, the target named is T1, IL-2 receptor βγ complex on pan T cells (human, UniProt P14784 27-551; P31785 23-369).
T1 sequence (looked up) 1: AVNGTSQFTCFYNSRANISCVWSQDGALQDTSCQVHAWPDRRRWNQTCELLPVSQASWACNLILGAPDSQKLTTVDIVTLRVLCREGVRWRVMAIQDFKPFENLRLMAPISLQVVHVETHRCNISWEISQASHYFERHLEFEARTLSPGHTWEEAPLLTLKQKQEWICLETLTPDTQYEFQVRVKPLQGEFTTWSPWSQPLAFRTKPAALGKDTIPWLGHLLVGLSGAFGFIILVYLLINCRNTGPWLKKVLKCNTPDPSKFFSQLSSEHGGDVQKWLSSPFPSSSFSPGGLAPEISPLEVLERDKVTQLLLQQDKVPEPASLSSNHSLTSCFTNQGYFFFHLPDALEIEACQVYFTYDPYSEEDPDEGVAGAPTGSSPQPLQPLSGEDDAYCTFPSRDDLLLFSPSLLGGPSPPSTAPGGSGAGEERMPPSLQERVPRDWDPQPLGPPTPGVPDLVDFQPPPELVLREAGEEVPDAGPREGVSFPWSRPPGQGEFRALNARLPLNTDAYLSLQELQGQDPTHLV
T1 sequence (looked up) 2: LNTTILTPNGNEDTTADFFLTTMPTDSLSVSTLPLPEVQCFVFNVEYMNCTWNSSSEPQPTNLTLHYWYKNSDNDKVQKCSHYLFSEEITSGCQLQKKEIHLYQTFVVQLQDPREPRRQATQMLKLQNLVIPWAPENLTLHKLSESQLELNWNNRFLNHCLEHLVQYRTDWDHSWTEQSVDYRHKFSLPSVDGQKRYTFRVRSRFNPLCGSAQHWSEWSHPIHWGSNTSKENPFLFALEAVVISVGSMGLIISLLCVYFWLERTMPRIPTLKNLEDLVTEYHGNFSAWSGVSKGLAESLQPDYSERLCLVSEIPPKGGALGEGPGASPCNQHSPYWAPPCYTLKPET
Briefly: cell-based or functional assay.

B1: CMP-124, MMP2 cleaved (ligand)
chain: APTSSSTKKTQLQLEHLLLDLQKILNGINNYKNPKLTR[Nle]L[hSer][Yn3″]KF[Ygp″][Nle]PKKATELKHLQCLEEELKPLEEVL[hSer]LAQSKNFHLRPRDLISNINVIVLELKGSETTF[hSer]CEYADETATIVEFLNRWITFSQSIISTLT
modifications: ends and bridges not checked; also: Lys23 side chain attached to cleavable peptide, MMP2-cleaved, remnant stays attached, cut site not given here
Take B1: the “Average EC50, pSTAT5 assay in pan T cells, MMP2 cleaved molecule” value (shortened to “Average EC50, pSTAT5 assay”) was 2.07 nM.

B2: CMP-120, MMP2 cleaved (ligand)
chain: APTSSSTKKTQLQLEHLLLDLQKILNGINNYKNPKLTR[Nle]L[hSer][Yn3″]KF[Ygp″][Nle]PKKATELKHLQCLEEELKPLEEVL[hSer]LAQSKNFHLRPRDLISNINVIVLELKGSETTF[hSer]CEYADETATIVEFLNRWITFSQSIISTLT
modifications: ends and bridges not checked; also: Lys23 side chain attached to cleavable peptide, MMP2-cleaved, remnant stays attached, cut site not given here
B2: the “Average EC50, pSTAT5 assay” value was found to be 0.7 nM.

B3: CMP-119, MMP2 cleaved (ligand)
chain: APTSSSTKKTQLQLEHLLLDLQKILNGINNYKNPKLTR[Nle]L[hSer][Yn3″]KF[Ygp″][Nle]PKKATELKHLQCLEEELKPLEEVL[hSer]LAQSKNFHLRPRDLISNINVIVLELKGSETTF[hSer]CEYADETATIVEFLNRWITFSQSIISTLT
modifications: ends and bridges not checked; also: Lys23 side chain attached to cleavable peptide, MMP2-cleaved, remnant stays attached, cut site not given here
For the molecule B3, the “Average EC50, pSTAT5 assay” value was 0.63 nM.

B4: CMP-129, MMP2 cleaved (ligand)
chain: APTSSSTKKTQLQLEHLLLDLQKILNGINNYKNPKLTR[Nle]L[hSer][Yn3″]KF[Ygp″][Nle]PKKATELKHLQCLEEELKPLEEVL[hSer]LAQSKNFHLRPRDLISNINVIVLELKGSETTF[hSer]CEYADETATIVEFLNRWITFSQSIISTLT
modifications: ends and bridges not checked; also: Lys23 side chain attached via PEG9 to cleavable peptide, MMP2-cleaved, remnant stays attached, cut site not given here
Take B4: the “Average EC50, pSTAT5 assay” value amounted to 1.4 nM.

B5: CMP-125, MMP2 cleaved (ligand)
chain: APTSSSTKKTQLQLEHLLLDLQKILNGINNYKNPKLTR[Nle]L[hSer][Yn3″]KF[Ygp″][Nle]PKKATELKHLQCLEEELKPLEEVL[hSer]LAQSKNFHLRPRDLISNINVIVLELKGSETTF[hSer]CEYADETATIVEFLNRWITFSQSIISTLT
modifications: ends and bridges not checked; also: cleavable moiety on Lys23 side chain, not given here
With B5, the “Average EC50, pSTAT5 assay” value was found to be 1.73 nM.

B6: CMP-118, MMP2 cleaved (ligand)
chain: APTSSSTKKTQLQLEHLLLDLQKILNGINNYKNPKLTR[Nle]L[hSer][Yn3″]KF[Ygp″][Nle]PKKATELKHLQCLEEELKPLEEVL[hSer]LAQSKNFHLRPRDLISNINVIVLELKGSETTF[hSer]CEYADETATIVEFLNRWITFSQSIISTLT
modifications: ends and bridges not checked; also: Lys23 side chain attached to cleavable peptide, MMP2-cleaved, remnant stays attached, cut site not given here
In the case of B6, the “Average EC50, pSTAT5 assay” value is 0.9 nM.

B7: CMP-128, MMP2 cleaved (ligand)
chain: APTSSSTKKTQLQLEHLLLDLQKILNGINNYKNPKLTR[Nle]L[hSer][Yn3″]KF[Ygp″][Nle]PKKATELKHLQCLEEELKPLEEVL[hSer]LAQSKNFHLRPRDLISNINVIVLELKGSETTF[hSer]CEYADETATIVEFLNRWITFSQSIISTLT
modifications: ends and bridges not checked; also: Lys23 side chain attached via PEG9 to cleavable peptide, MMP2-cleaved, remnant stays attached, cut site not given here
On to B7, for which the “Average EC50, pSTAT5 assay” value was determined as 3.68 nM.

B8: CMP-123, MMP2 cleaved (ligand)
chain: APTSSSTKKTQLQLEHLLLDLQKILNGINNYKNPKLTR[Nle]L[hSer][Yn3″]KF[Ygp″][Nle]PKKATELKHLQCLEEELKPLEEVL[hSer]LAQSKNFHLRPRDLISNINVIVLELKGSETTF[hSer]CEYADETATIVEFLNRWITFSQSIISTLT
modifications: ends and bridges not checked; also: Lys23 side chain attached via PEG9 to cleavable peptide, MMP2-cleaved, remnant stays attached, cut site not given here
On to B8, for which the “Average EC50, pSTAT5 assay” value is 2.93 nM.

B9: CMP-122, MMP2 cleaved (ligand)
chain: APTSSSTKKTQLQLEHLLLDLQKILNGINNYKNPKLTR[Nle]L[hSer][Yn3″]KF[Ygp″][Nle]PKKATELKHLQCLEEELKPLEEVL[hSer]LAQSKNFHLRPRDLISNINVIVLELKGSETTF[hSer]CEYADETATIVEFLNRWITFSQSIISTLT
modifications: ends and bridges not checked; also: Lys23 side chain attached via PEG9 to cleavable peptide, MMP2-cleaved, remnant stays attached, cut site not given here
For the molecule B9, the “Average EC50, pSTAT5 assay” value was determined as 3.55 nM.

B10: CMP-141, MMP2 cleaved (ligand)
chain: APTSSSTKKTQLQLEHLLLDLQKILNGINNYKNPKLTR[Nle]L[hSer][Yn3]KF[Ygp][Nle]PKKATELKHLQCLEEELKPLEEVL[hSer]LAQSKNFHLRPRDLISNINVIVLELKGSETTF[hSer]CEYADETATIVEFLNRWITFSQSIISTLT
modifications: not fully specified (residue 23); ends and bridges not checked; also: MMP2-cleaved, remnant of moiety on Lys23 side chain, not given here
For B10, the “Average EC50, pSTAT5 assay” value was 0.8 nM.

B11: CMP-126, MMP2 cleaved (ligand)
chain: APTSSSTKKTQLQLEHLLLDLQKILNGINNYKNPKLTR[Nle]L[hSer][Yn3″]KF[Ygp″][Nle]PKKATELKHLQCLEEELKPLEEVL[hSer]LAQSKNFHLRPRDLISNINVIVLELKGSETTF[hSer]CEYADETATIVEFLNRWITFSQSIISTLT
modifications: ends and bridges not checked; also: Lys23 side chain attached to cleavable peptide, MMP2-cleaved, remnant stays attached, cut site not given here
Turning to B11, the “Average EC50, pSTAT5 assay” value is 2.03 nM.

B12: CMP-127, MMP2 cleaved (ligand)
chain: APTSSSTKKTQLQLEHLLLDLQKILNGINNYKNPKLTR[Nle]L[hSer][Yn3″]KF[Ygp″][Nle]PKKATELKHLQCLEEELKPLEEVL[hSer]LAQSKNFHLRPRDLISNINVIVLELKGSETTF[hSer]CEYADETATIVEFLNRWITFSQSIISTLT
modifications: ends and bridges not checked; also: Lys23 side chain attached via PEG9 to cleavable peptide, MMP2-cleaved, remnant stays attached, cut site not given here
Consider B12, for which the “Average EC50, pSTAT5 assay” value is 2.43 nM.
